Source: article PMC11870023, “A facile assay for zDHHC palmitoyl transferase activation elucidates effects of mutation and modification” (Journal of Lipid Research, 2025)

Experiments:
Test in all cases: auto-S-palmitoylation of HEK293 membranes, SDS-PAGE fluorescence normalised to tag Western blot
[1] = substrate: CC(C)(COP(=O)(O)OP(=O)(O)OC[C@H]1O[C@@H](n2cnc3c(N)ncnc32)[C@H](O)[C@@H]1OP(=O)(O)O)[C@@H](O)C(=O)NCCC(=O)NCCSC(=O)CCCCCCCCCCCCCCCNc1ccc([N+](=O)[O-])c2nonc12; type: biochemical, Mus musculus; details: pH 7.4, 37 °C, 2 min, labelled compound, covalent thioester at active-site Cys134
[2] = substrate: CC(C)(COP(=O)(O)OP(=O)(O)OC[C@H]1O[C@@H](n2cnc3c(N)ncnc32)[C@H](O)[C@@H]1OP(=O)(O)O)[C@@H](O)C(=O)NCCC(=O)NCCSC(=O)CCCCCCCCCCCCCCCNc1ccc([N+](=O)[O-])c2nonc12; type: cell-based, Mus musculus; details: pH 7.4, 37 °C, labelled compound, covalent thioester at active-site Cys
[3] = substrate: CC(C)(COP(=O)(O)OP(=O)(O)OC[C@H]1O[C@@H](n2cnc3c(N)ncnc32)[C@H](O)[C@@H]1OP(=O)(O)O)[C@@H](O)C(=O)NCCC(=O)NCCSC(=O)CCCCCCCCCCCCCCCNc1ccc([N+](=O)[O-])c2nonc12; type: cell-based, Homo sapiens; details: pH 7.4, 37 °C, 2 min, labelled compound, covalent thioester at active-site Cys
Source text: auto-S-palmitoylation of HEK293 membranes, SDS-PAGE fluorescence normalised to tag Western blot on human zDHHC2 | neither S306 F nor M356I mutation of zDHHC2 within the C-terminal cytoplasmic tail

[4] = substrate: CC(C)(COP(=O)(O)OP(=O)(O)OC[C@H]1O[C@@H](n2cnc3c(N)ncnc32)[C@H](O)[C@@H]1OP(=O)(O)O)[C@@H](O)C(=O)NCCC(=O)NCCSC(=O)CCCCCCCCCCCCCCCNc1ccc([N+](=O)[O-])c2nonc12; type: cell-based, Homo sapiens; details: pH 7.4, 37 °C, labelled compound, covalent thioester at active-site Cys

B1: HA-tagged mouse zDHHC5 (Mus musculus) (protein)
chain: MPAESGKRFKPSKYVPVSAAAIFLVGATTLFFAFTCPGLSLNVSPAVPIYNAIMFLFVLANFSMATFMDPGIFPRAEEDEDKEDDFRAPLYKTVEIKGIQVRMKWCATCRFYRPPRCSHCSVCDNCVEEFDHHCPWVNNCIGRRNYRYFFLFLLSLTAHIMGVFGFGLLYVLYHIEELSGVRTAVTMAVMCVAGLFFIPVAGLTGFHVVLVARGRTTNEQVTGKFRGGVNPFTNGCCNNVSRVLCSSPAPRYLGRPKKEKTIVIRPPFLRPEVSDGQITVKIMDNGIQGELRRTKSKGSLEITESQSADAEPPPPPKPDLSRYTGLRTHLSLATNEDSSLLGKDSPPTPTMYKYRPGYSSSSTSAAMPHSSSAKLSRGDSLKEPTSIADSSRHPSYRSEPSLEPESFRSPTFGKSFHFDPLSSGSRSSSLKSAQGTGFELGQLQSIRSEGTTSTSYKSLANQTRNGSLSYDSLLTPSDSPDFESVQAGPEPDPPLGYTSPFLSARLAQQREAERHPRLLPTGPPHREPSPVRYDNLSRHIVASLQEREKLLRQSPPLAGREEEPGLGDSGIQSTPGSGHAPRTSSSSDDSKRSPLSKTPLGRPAVPRFGKPDGLRSRGLGSPEPGTTAPYLGRSISYSSQKAPSGVSETEEVALQPLLTPKDEVQLKTTYSKSNGQPKSIGSASPGPGQPPLSSPTRGGVKKVSGVGGTTYEISV
notes: full length, HA tag kept (pEF-Bos-HA), overexpressed in HEK293 cells, native membrane fraction; 78 kDa band
Km [1]: 3.59 ± 0.29 µM

B2: HA-tagged mouse zDHHC5 (Mus musculus; C236S/C237S/C245S) (protein)
chain: MPAESGKRFKPSKYVPVSAAAIFLVGATTLFFAFTCPGLSLNVSPAVPIYNAIMFLFVLANFSMATFMDPGIFPRAEEDEDKEDDFRAPLYKTVEIKGIQVRMKWCATCRFYRPPRCSHCSVCDNCVEEFDHHCPWVNNCIGRRNYRYFFLFLLSLTAHIMGVFGFGLLYVLYHIEELSGVRTAVTMAVMCVAGLFFIPVAGLTGFHVVLVARGRTTNEQVTGKFRGGVNPFTNGSSNNVSRVLSSSPAPRYLGRPKKEKTIVIRPPFLRPEVSDGQITVKIMDNGIQGELRRTKSKGSLEITESQSADAEPPPPPKPDLSRYTGLRTHLSLATNEDSSLLGKDSPPTPTMYKYRPGYSSSSTSAAMPHSSSAKLSRGDSLKEPTSIADSSRHPSYRSEPSLEPESFRSPTFGKSFHFDPLSSGSRSSSLKSAQGTGFELGQLQSIRSEGTTSTSYKSLANQTRNGSLSYDSLLTPSDSPDFESVQAGPEPDPPLGYTSPFLSARLAQQREAERHPRLLPTGPPHREPSPVRYDNLSRHIVASLQEREKLLRQSPPLAGREEEPGLGDSGIQSTPGSGHAPRTSSSSDDSKRSPLSKTPLGRPAVPRFGKPDGLRSRGLGSPEPGTTAPYLGRSISYSSQKAPSGVSETEEVALQPLLTPKDEVQLKTTYSKSNGQPKSIGSASPGPGQPPLSSPTRGGVKKVSGVGGTTYEISV
notes: as for B1
Km [1]: 17.95 ± 11.12 µM

B3: mouse zDHHC2 (Mus musculus) (protein)
chain: MAPSGSGGVRRRCRRVLYWIPVVFISLLLGWSYYAYAIQLCIVSMENIGEQVVCLMAYHLLFAMFVWSYWKTIFTLPMNPSKEFHLSYAEKELLEREPRGEAHQEVLRRAAKDLPIYTRTMSGAIRYCDRCQLIKPDRCHHCSVCDKCILKMDHHCPWVNNCVGFSNYKFFLLFLAYSLLYCLFIAATDLQYFIRFWTNGLPDTQAKFHIMFLFFAAAMFSVSLSSLFGYHCWLVSKNKSTLEAFRNPVFRHGTDKNGFSLGFSKNMRQVFGDEKKYWLLPVFSSQGDGCSFPTCLVNQDPEQPSTPAGLNSTVKNPENHQFPAKPLRESQSHLLKDSQTWTESSANPGKGKAGMSNPALTMENET
notes: full length, HA tag kept (pEF-Bos-HA), HEK293 membrane fraction
Km [2]: 2.86 ± 0.78 µM

B4: mouse zDHHC3 (Mus musculus) (protein)
chain: MMLIPTHHFRDIERKPEYLQPEKCAPPPFPGPAGAMWFIRDGCGIACAIVTWFLVLYAEFVVLFVMLVPSRDYAYSIINGIVFNLLAFLALASHCRAMLTDPGAVPKGNATKEFIESLQLKPGQVVYKCPKCCSIKPDRAHHCSVCKRCIRKMDHHCPWVNNCVGENNQKYFVLFTMYIALISLHALIMVGFHFLHCFEEDWTKCSSFSPPTTVILLILLCFEALLFLIFTSVMFGTQVHSICTDETGIEQLKKEERRWAKKTKWMNMKAVFGHPFSLGWASPFATPDQGKADPYQYVV
notes: as for B3
Km [2]: 6.83 ± 0.98 µM

B5: mouse zDHHC4 (Mus musculus) (protein)
chain: MDFLVLFLFYLAFLLICVVLICIFTKSQRLKAVVLGGAQVCSRVIPQCLQRAVQTLLHQLFHTRHPTFIVLHLLLQGLVYAEYTCEVFGYCRELEFSLPYLLLPYVLLSVNLVFFTLTCAANPGTITKANESFLLQVYKFDDVMFPKNSRCPTCDLRKPARSKHCRLCDRCVHRFDHHCVWVNNCIGAWNTRYFLIYLLTLTASAATIATVTAAFLLRLVTVSDLYQETYLDDVGHFQAVDTVFLIQHLFLAFPRIVFLLGFVIVLSMLLAGYLCFALYLAATNQTTNEWYKGDWAWCQRWPLVAWSPSAEPRIHQNIHSHGFRSNLREIFLPATPSYKKKEK
notes: as for B3
Km [2]: 0.69 ± 0.13 µM

B6: mouse zDHHC14 (Mus musculus) (protein)
chain: MPPGGGGPMKDCEYSQISTHSSSPMESPHKKKKIAARRKWEVFPGRNKFFCNGRIMMARQTGVFYLTLILILVTSGLFFAFDCRYLAEKITPAIPVVGGILFFFVMGTLLRTSFSDPGVLPRATPDEAADLERQIDIANGTSSGGYRPPPRTKEVVINGQTVKLKYCFTCKIFRPPRASHCSLCDNCVEQFDHHCPWVGNCVGKRNYRFFYMFILSLSFLTVFIFAFVITHVIHRSQQKGFLDALKDSPASVLEAVICFFSVWSIIGLSGFHTYLISSNQTTNEDIKGSWSNKRGKENYNPYSYGNIFTNCCVALCGPISPSLIDRRGYVQPDTPQPAAPSNGITMYGATQSQSDMCDQDQCIQSTKFVLQAAATPLLQSEPSLTSEELHMPGKPGLGTPCASLTLGQPTPPSSMPNLATEATLSDIMPLKDEHGGHQFLTPDEAPSPPRMLGAGSPLAHSRTMHMLGLASQDSLHEDSVRGLVKLSSV
notes: as for B3
Km [2]: 0.98 ± 0.15 µM

B7: human zDHHC2 (Homo sapiens; S306F) (protein)
chain: MAPSGPGSSARRRCRRVLYWIPVVFITLLLGWSYYAYAIQLCIVSMENTGEQVVCLMAYHLLFAMFVWSYWKTIFTLPMNPSKEFHLSYAEKDLLEREPRGEAHQEVLRRAAKDLPIYTRTMSGAIRYCDRCQLIKPDRCHHCSVCDKCILKMDHHCPWVNNCVGFSNYKFFLLFLAYSLLYCLFIAATDLQYFIKFWTNGLPDTQAKFHIMFLFFAAAMFSVSLSSLFGYHCWLVSKNKSTLEAFRSPVFRHGTDKNGFSLGFSKNMRQVFGDEKKYWLLPIFSSLGDGCSFPTCLVNQDPEQAFTPAGLNSTAKNLENHQFPAKPLRESQSHLLTDSQSWTESSINPGKCKAGMSNPALTMENET
notes: full length, His6-Myc tag kept (pCEpuro-His6-Myc-1), HEK293 membrane fraction
Km [3]: 3.36 ± 0.73 µM

B8: human zDHHC2 (Homo sapiens; M356I) (protein)
chain: MAPSGPGSSARRRCRRVLYWIPVVFITLLLGWSYYAYAIQLCIVSMENTGEQVVCLMAYHLLFAMFVWSYWKTIFTLPMNPSKEFHLSYAEKDLLEREPRGEAHQEVLRRAAKDLPIYTRTMSGAIRYCDRCQLIKPDRCHHCSVCDKCILKMDHHCPWVNNCVGFSNYKFFLLFLAYSLLYCLFIAATDLQYFIKFWTNGLPDTQAKFHIMFLFFAAAMFSVSLSSLFGYHCWLVSKNKSTLEAFRSPVFRHGTDKNGFSLGFSKNMRQVFGDEKKYWLLPIFSSLGDGCSFPTCLVNQDPEQASTPAGLNSTAKNLENHQFPAKPLRESQSHLLTDSQSWTESSINPGKCKAGISNPALTMENET
notes: as for B7
Km [3]: 4.59 ± 0.89 µM

B9: human zDHHC14 (Homo sapiens) (protein)
chain: MPPGGGGPMKDCEYSQISTHSSSPMESPHKKKKIAARRKWEVFPGRNKFFCNGRIMMARQTGVFYLTLVLILVTSGLFFAFDCPYLAVKITPAIPAVAGILFFFVMGTLLRTSFSDPGVLPRATPDEAADLERQIDIANGTSSGGYRPPPRTKEVIINGQTVKLKYCFTCKIFRPPRASHCSLCDNCVERFDHHCPWVGNCVGKRNYRFFYMFILSLSFLTVFIFAFVITHVILRSQQTGFLNALKDSPASVLEAVVCFFSVWSIVGLSGFHTYLISSNQTTNEDIKGSWSNKRGKENYNPYSYGNIFTNCCVALCGPISPSLIDRRGYIQPDTPQPAAPSNGITMYGATQSQSDMCDQDQCIQSTKFVLQAAATPLLQSEPSLTSDELHLPGKPGLGTPCASLTLGPPTPPASMPNLAEATLADVMPRKDEHMGHQFLTPDEAPSPPRLLAAGSPLAHSRTMHVLGLASQDSLHEDSVRGLVKLSSV
notes: as for B7
Km ([4]; 2 min): 1.78 ± 0.32 µM

B10: human zDHHC2 (Homo sapiens) (protein)
chain: MAPSGPGSSARRRCRRVLYWIPVVFITLLLGWSYYAYAIQLCIVSMENTGEQVVCLMAYHLLFAMFVWSYWKTIFTLPMNPSKEFHLSYAEKDLLEREPRGEAHQEVLRRAAKDLPIYTRTMSGAIRYCDRCQLIKPDRCHHCSVCDKCILKMDHHCPWVNNCVGFSNYKFFLLFLAYSLLYCLFIAATDLQYFIKFWTNGLPDTQAKFHIMFLFFAAAMFSVSLSSLFGYHCWLVSKNKSTLEAFRSPVFRHGTDKNGFSLGFSKNMRQVFGDEKKYWLLPIFSSLGDGCSFPTCLVNQDPEQASTPAGLNSTAKNLENHQFPAKPLRESQSHLLTDSQSWTESSINPGKCKAGMSNPALTMENET
notes: as for B7
Km ([4]; 2 min): 4.46 ± 0.49 µM

B11: human zDHHC4 (Homo sapiens) (protein)
chain: MDFLVLFLFYLASVLMGLVLICVCSKTHSLKGLARGGAQIFSCIIPECLQRAVHGLLHYLFHTRNHTFIVLHLVLQGMVYTEYTWEVFGYCQELELSLHYLLLPYLLLGVNLFFFTLTCGTNPGIITKANELLFLHVYEFDEVMFPKNVRCSTCDLRKPARSKHCSVCNWCVHRFDHHCVWVNNCIGAWNIRYFLIYVLTLTASAATVAIVSTTFLVHLVVMSDLYQETYIDDLGHLHVMDTVFLIQYLFLTFPRIVFMLGFVVVLSFLLGGYLLFVLYLAATNQTTNEWYRGDWAWCQRCPLVAWPPSAEPQVHRNIHSHGLRSNLQEIFLPAFPCHERKKQE
notes: as for B7
Km ([4]; 5 min): 9.68 ± 2.34 µM
